# Patent US7265267 (CROPDESIGN N V, dated 2007)
# T1: CDC2bAt protein in protein extract of A. thaliana Col-O cell suspension culture (Arabidopsis thaliana, UniProt P25859 1-309)
# T1 construct: Endogenous protein in a crude extract
# T1 sequence (looked up): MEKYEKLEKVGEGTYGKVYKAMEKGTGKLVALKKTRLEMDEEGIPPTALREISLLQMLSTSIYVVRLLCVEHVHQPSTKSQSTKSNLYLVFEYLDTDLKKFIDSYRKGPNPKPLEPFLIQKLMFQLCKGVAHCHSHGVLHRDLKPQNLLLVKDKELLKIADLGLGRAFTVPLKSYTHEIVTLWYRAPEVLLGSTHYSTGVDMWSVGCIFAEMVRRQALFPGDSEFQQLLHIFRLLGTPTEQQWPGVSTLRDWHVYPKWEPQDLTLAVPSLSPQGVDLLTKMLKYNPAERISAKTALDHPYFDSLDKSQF
# B1: GAL4 activation domain-LDV39 fusion (pGADLDV39) (other, not shown: large carriers)
# chain: RRDSPPVEEQCQIEEEDSSVSCCSTSEEKSKRRIEFVDLEENNGDDRETETSWIYDDLNKSEESMNMDSSSVAVEDVESRRRLRKSLHETVKEAELEDFFQVAEKDLRNKLLECSMKYNFDFEKDEPLGGGRYEWVKLNP
# notes: FL39 = ICK2 = CKI2
# B2: GAL4 activation domain-LDV66 fusion (pGADLDV66) (other, not shown: large carriers)
# chain: VNSVPVAQSSNEDECFDNFVSVQVSCGENSLGFESRHSTRESTPCNFVEDMEIMVTPGSSTRSMCRATKEYTREQDNVIPTTSEMEEFFAYAEQQQQRLFMEKYNFDIVNDIPLSGRYEWVQVKP
# notes: FL66 = ICK3
# B3: GAL4 activation domain alone (pGAD424) (other, UniProt P04386 768-881, looked up)
# chain: ANFNQSGNIADSSLSFTFTNSSNGPNLITTQTNSQALSQPIASSNVHDNFMNNEITASKIDDGNNSKPLSPGWTDQTAYNAFGITTGMFNTTTMDDVYNYLFDDEDTPPNPKKE
# notes: Negative control prey in the two-hybrid retransformation
# B4: GAL4 activation domain-LDV159 fusion (pGADLDV159) (other, Arabidopsis thaliana, UniProt Q67Y93 1-191, looked up, not shown: large carriers)
# chain: MVRKYRKAKGIVEAGVSSTYMQLRSRRIVYVRSEKSSSVSVVGDNGVSSSCSGSNEYKKKELIHLEEEDKDGDTETSTYRRGTKRKLFENLREEEKEELSKSMENYSSEFESAVKESLDCCCSGRKTMEETVTAEEEEKAKLMTEMPTESEIEDFFVEAEKQLKEKFKKKYNFDFEKEKPLEGRYEWVKLE
# notes: also called ICK1
# B5: Purified recombinant FL66 protein (E. coli, FL66pET21d), starting at methionine 11 (other)
# chain: MEVSKATAPSPGVRTRAAKTLALKRLNSSAADSALPNDSSCYLQLRSRRLEKPSSLIEPKQPPRVHRSGIKESGSRSRVDSVNSVPVAQSSNEDECFDNFVSVQVSCGENSLGFESRHSTRESTPCNFVEDMEIMVTPGSSTRSMCRATKEYTREQDNVIPTTSEMEEFFAYAEQQQQRLFMEKYNFDIVNDIPLSGRYEWVQVKP
# notes: also called FL66-Sepharose
# B6: GAL4 activation domain-FL66 fusion (pGADFL66), FL66 starting at methionine 11 (other, not shown: large carriers)
# chain: MEVSKATAPSPGVRTRAAKTLALKRLNSSAADSALPNDSSCYLQLRSRRLEKPSSLIEPKQPPRVHRSGIKESGSRSRVDSVNSVPVAQSSNEDECFDNFVSVQVSCGENSLGFESRHSTRESTPCNFVEDMEIMVTPGSSTRSMCRATKEYTREQDNVIPTTSEMEEFFAYAEQQQQRLFMEKYNFDIVNDIPLSGRYEWVQVKP
# notes: the FL66 clone may not be full length; also called ICK3
# B7: GAL4 activation domain-FL39 fusion (pGADFL39) (other, not shown: large carriers)
# chain: MAAVRRRERDVVEENGVTTTTVKRRKMEEEVDLVESRIILSPCVQATNRGGIVARNSAGASETSVVIVRRRDSPPVEEQCQIEEEDSSVSCCSTSEEKSKRRIEFVDLEENNGDDRETETSWIYDDLNKSEESMNMDSSSVAVEDVESRRRLRKSLHETVKEAELEDFFQVAEKDLRNKLLECSMKYNFDFEKDEPLGGGRYEWVKLNP
# notes: also called ICK2; CKI2
# Experiments:
# [1] = molecular target: T2, GAL4 DNA binding domain alone (pGBT9) (UniProt P04386 1-147); assay: yeast two-hybrid control, growth without histidine
# T2 construct: Negative control bait in the two-hybrid retransformation
# Excerpt: (§1) The LDV159 clone was identical to ICK1 (GenBank accession number U94772 as published by Wang in Nature 386 (1997), 451–452). The two other clones were novel and encoded proteins only distantly related to ICK1 (Table 1). The LDV39 gene was 622 bp long, consisting of 423 bp coding region and 199 bp 3' UTR (excluding the poly-A tail). The LDV66 gene was 611 bp long, consisting of 379 bp coding region and 232 bp 3' UTR (excluding the poly-A tail). The specificity of the interaction between LDV39, LDV66, and LDV159 was verified by the retransformation of yeast with pGBTCDC2A and pGADLDV39/pGADLDV66/pGADLDV159. As controls, pGBTCDC2A was cotransformed with a vector containing only the GAL4 activation domain (pGAD424); and the pGADLDV39/pGADLDV66/pGADLDV159 vectors were cotransformed with a plasmid containing only the GAL4 DNA binding domain (pGBT9). Transformants were plated on medium with or without histidine. Only transformants containing both pGBTCDC2A and pGADLDV39, pGADLDV66, ot pGADLDV159 were able to grow in the absence of histidine.
# [2] = molecular target: GAL4 DNA-binding domain-CDC2bAt fusion (pGBTCDC2B) (Arabidopsis thaliana, UniProt P04386 1-147; P25859 1-309); assay: yeast two-hybrid, growth without histidine
# Description: (§2) The pGBTCDC2B vector encoding a fusion protein between the C-terminus of the GAL4 DNA-binding domain and CDC2bAt was constructed by cloning the full length coding region of CDC2bAt into the pGBT9 vector. pGBTCDC2B was transformed with pGADLDV66/pGADLDV39/pGADLDV159 in the HF7c yeast and cotransformants were plated on medium with or without histidine. As control, pGBTCDC2A was transformed with pGADLDV66/pGADLDV39/pGADLDV159. In contrast to the transformants containing the pGBTCDC2A vector were cotransformants containing the pGBTCDC2B vector unable to grow in the absence of histidine.
# [3] = molecular target: T3, GAL4 DNA-binding domain-CDC2aAt fusion (pGBTCDC2A bait) (Arabidopsis thaliana, UniProt P04386 1-147; P24100 1-294); assay: yeast two-hybrid control, growth without histidine
# T3 construct: Yeast two-hybrid bait; whole CDC2aAt coding region amplified from cDNA and cloned in the EcoRI site of pGBT9
# Excerpt: as §1
# [4] = molecular target: T1, CDC2bAt protein in protein extract of …; assay: pull-down from cell extract on FL66-Sepharose, Western blot
# Description: The *Arabidopsis thaliana* CKI FL66 Associates Exclusively with CDC2aAt In Vitro Purified recombinant FL66 protein (prepared as described as in previous Example 6 was coupled to CNBr-activated Sepharose 4B (Pharmacia) at a concentration of 5 mg/ml of gel according to the manufacturer's instructions. Protein extracts were prepared from a 2-day-old cell suspension culture of *A. thaliana* Col-O in homogenisation buffer (HB) containing 50 mM Tris-HCl (pH 7.2), 60 mM β-glycerophosphate, 15 mM nitrophenyl phosphate, 15 mM EGTA, 15 mM MgCl_2, 2 mM dithiothreitol, 0.1 mM vanadate, 50 mM NaF, 20 µg/ml leupeptin, 20 µg/ml aprotinin, 20 µg/ml soybean trypsin inhibitor (SBTI), 100 µM benzamidine, 1 mM phenylmethylsulfonylfluoride, and 0.1% Triton X-100. Two-hundred µg protein extract in a total volume of 100 µl HB was loaded on 50 µl 50% (v/v) FL66-Sepharose or control Sepharose beads, and incubated on a rotating wheel for 2 h at 4° C. The unbound proteins were collected for later analysis. The beads-bound fractions were washed 3 times with HB. Beads were resuspended in 30 µl SDS-loading buffer and boiled. The supernatants (beads bound fractions) and 10 µl of the unbound fractions were separated on a 12.5% SDS-PAGE gel and electroblotted on nitrocellulose membrane (Hybond-C^+; Amersham). […]
# [5] = molecular target: T3, GAL4 DNA-binding domain-CDC2aAt fusion …; assay: yeast two-hybrid, growth without histidine
# Description: as §2
Binder,binding result [2],also measured
B1,no binding,binding result [1]: no binding
B2,no binding,binding result [1]: no binding
B3,,binding result [3]: no binding
B4,no binding,
B5,,binding result [4]: no binding
B6,no binding,
B7,no binding,binding result [5]: binds
